Test results as given in patent US20150344570A1 (published 2015).

T1: FcγRIIb extracellular domain with C-terminal His tag (human, UniProt P31994 43-217)
T1 construct: extracellular domain; expressed in FreeStyle293 cells; analyte in Biacore; also called FcgRIIb; 2b
T1 sequence (looked up): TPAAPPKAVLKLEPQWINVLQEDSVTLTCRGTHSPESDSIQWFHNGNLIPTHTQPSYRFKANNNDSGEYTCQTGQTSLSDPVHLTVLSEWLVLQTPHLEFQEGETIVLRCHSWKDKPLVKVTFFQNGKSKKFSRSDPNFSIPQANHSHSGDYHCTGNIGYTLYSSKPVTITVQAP

T2: FcγRIIb extracellular domain with C-terminal His tag (human, UniProt P31994 43-217)
T2 construct: extracellular domain; soluble analyte in Biacore; also called FcgRIIb; not shown: His tag at the C terminus
T2 sequence (looked up): T1 sequence (looked up)

B1: GpH7-A5/GpH7-B3 variant Y296_09D/GpL16-k0 (antibody, human IgG1, kappa)
heavy 1: not shown
heavy 2: not shown
light: DIVMTQSPLSLPVTPGEPASISCQASESLVHSNRNTYLHWYLQKPGQSPQLLIYKVSNRFSGVPDRFSGSGSGTDFTLKISRVEAEDVGVYYCSQNTHVPPTFGQGTKVEIERTVAAPSVFIFPPSDEQLKSGTASVVCLLNNFYPREAKVQWKVDNALQSGNSQESVTEQDSKDSTYSLSSTLTLSKADYEKHKVYACEVTHQGLSSPVTKSFNRGEC
notes: He Ab; IgG1, mutation in one H chain
B2: GpH7-A5/GpH7-B3 variant Y296_10E/GpL16-k0 (antibody, human IgG1, kappa)
heavy 1: not shown
heavy 2: not shown
light: B1 light
notes: as for B1
B3: GpH7-A5/GpH7-B3 variant Y296_11K/GpL16-k0 (antibody, human IgG1, kappa)
heavy 1: not shown
heavy 2: not shown
light: B1 light
notes: as for B1
B4: GpH7-A5/GpH7-B3 variant Y296_12R/GpL16-k0 (antibody, human IgG1, kappa)
heavy 1: not shown
heavy 2: not shown
light: B1 light
notes: as for B1
B5: GpH7-A5/GpH7-B3 variant Y296_13S/GpL16-k0 (antibody, human IgG1, kappa)
heavy 1: not shown
heavy 2: not shown
light: B1 light
notes: as for B1
B6: GpH7-A5/GpH7-B3 variant Y296_14T/GpL16-k0 (antibody, human IgG1, kappa)
heavy 1: not shown
heavy 2: not shown
light: B1 light
notes: as for B1
B7: GpH7-A5/GpH7-B3 variant Y296_16H/GpL16-k0 (antibody, human IgG1, kappa)
heavy 1: not shown
heavy 2: not shown
light: B1 light
notes: as for B1
B8: GpH7-A5/GpH7-B3 variant Y296_18N/GpL16-k0 (antibody, human IgG1, kappa)
heavy 1: not shown
heavy 2: not shown
light: B1 light
notes: as for B1
B9: GpH7-A5/GpH7-B3 variant Y296_19Q/GpL16-k0 (antibody, human IgG1, kappa)
heavy 1: not shown
heavy 2: not shown
light: B1 light
notes: as for B1
B10: GpH7-A5/GpH7-B3 variant Y300_01G/GpL16-k0 (antibody, human IgG1, kappa)
heavy 1: not shown
heavy 2: not shown
light: B1 light
notes: as for B1
B11: GpH7-A5/GpH7-B3 variant Y300_02A/GpL16-k0 (antibody, human IgG1, kappa)
heavy 1: not shown
heavy 2: not shown
light: B1 light
notes: as for B1
B12: GpH7-A5/GpH7-B3 variant Y300_03V/GpL16-k0 (antibody, human IgG1, kappa)
heavy 1: not shown
heavy 2: not shown
light: B1 light
notes: as for B1
B13: GpH7-A5/GpH7-B3 variant Y300_06M/GpL16-k0 (antibody, human IgG1, kappa)
heavy 1: not shown
heavy 2: not shown
light: B1 light
notes: as for B1
B14: GpH7-A5/GpH7-B3 variant Y300_07I/GpL16-k0 (antibody, human IgG1, kappa)
heavy 1: not shown
heavy 2: not shown
light: B1 light
notes: as for B1
B15: GpH7-A5/GpH7-B3 variant Y300_08L/GpL16-k0 (antibody, human IgG1, kappa)
heavy 1: not shown
heavy 2: not shown
light: B1 light
notes: as for B1
B16: GpH7-A5/GpH7-B3 variant Y300_09D/GpL16-k0 (antibody, human IgG1, kappa)
heavy 1: not shown
heavy 2: not shown
light: B1 light
notes: as for B1
B17: GpH7-A5/GpH7-B3 variant Y300_11K/GpL16-k0 (antibody, human IgG1, kappa)
heavy 1: not shown
heavy 2: not shown
light: B1 light
notes: as for B1
B18: GpH7-A5/GpH7-B3 variant Y300_12R/GpL16-k0 (antibody, human IgG1, kappa)
heavy 1: not shown
heavy 2: not shown
light: B1 light
notes: as for B1
B19: GpH7-A5/GpH7-B3 variant Y300_13S/GpL16-k0 (antibody, human IgG1, kappa)
heavy 1: not shown
heavy 2: not shown
light: B1 light
notes: as for B1
B20: GpH7-A5/GpH7-B3 variant Y300_14T/GpL16-k0 (antibody, human IgG1, kappa)
heavy 1: not shown
heavy 2: not shown
light: B1 light
notes: as for B1
B21: GpH7-A5/GpH7-B3 variant Y300_16H/GpL16-k0 (antibody, human IgG1, kappa)
heavy 1: not shown
heavy 2: not shown
light: B1 light
notes: as for B1
B22: GpH7-A5/GpH7-B3 variant Y300_20W/GpL16-k0 (antibody, human IgG1, kappa)
heavy 1: not shown
heavy 2: not shown
light: B1 light
notes: as for B1
B23: GpH7-A5/GpH7-B3 variant A327_03V/GpL16-k0 (antibody, human IgG1, kappa)
heavy 1: not shown
heavy 2: not shown
light: B1 light
notes: change in the GpH7-B3 H chain only; also called He Ab
B24: GpH7-A5/GpH7-B3 variant A327_06M/GpL16-k0 (antibody, human IgG1, kappa)
heavy 1: not shown
heavy 2: not shown
light: B1 light
notes: as for B23

These binders were tested against T1, FcγRIIb extracellular domain with … (assay: SPR (Biacore), captured antibody, FcγR as analyte; relative binding).
With B1 the He/Con_2b was 98.9 % of HeCon Ab (GpH7-A5/GpH7-B3/GpL16-k0 = 100).
B2 was tested, and the He/Con_2b was 98 % of HeCon Ab (GpH7-A5/GpH7-B3/GpL16-k0 = 100).
For B3, the He/Con_2b was 72.8 % of HeCon Ab (GpH7-A5/GpH7-B3/GpL16-k0 = 100).
In the case of B4, the He/Con_2b is reported as 79.5 % of HeCon Ab (GpH7-A5/GpH7-B3/GpL16-k0 = 100).
With B5 the He/Con_2b was 86.3 % of HeCon Ab (GpH7-A5/GpH7-B3/GpL16-k0 = 100).
B6 was tested, and the He/Con_2b was 88.2 % of HeCon Ab (GpH7-A5/GpH7-B3/GpL16-k0 = 100).
With B7 the He/Con_2b was 92.2 % of HeCon Ab (GpH7-A5/GpH7-B3/GpL16-k0 = 100).
With B8 the He/Con_2b was 91.5 % of HeCon Ab (GpH7-A5/GpH7-B3/GpL16-k0 = 100).
B9 was tested, and the He/Con_2b was 89.3 % of HeCon Ab (GpH7-A5/GpH7-B3/GpL16-k0 = 100).
With B10 the He/Con_2b was 48.4 % of HeCon Ab (GpH7-A5/GpH7-B3/GpL16-k0 = 100).
For B11, the He/Con_2b was 69.2 % of HeCon Ab (GpH7-A5/GpH7-B3/GpL16-k0 = 100).
B12 was tested, and the He/Con_2b was 73.9 % of HeCon Ab (GpH7-A5/GpH7-B3/GpL16-k0 = 100).
With B13 the He/Con_2b was 84.3 % of HeCon Ab (GpH7-A5/GpH7-B3/GpL16-k0 = 100).
For B14, the He/Con_2b was 74.5 % of HeCon Ab (GpH7-A5/GpH7-B3/GpL16-k0 = 100).
In the case of B15, the He/Con_2b is reported as 73.6 % of HeCon Ab (GpH7-A5/GpH7-B3/GpL16-k0 = 100).
B16 was tested, and the He/Con_2b was 93.2 % of HeCon Ab (GpH7-A5/GpH7-B3/GpL16-k0 = 100).
In the case of B17, the He/Con_2b is reported as 51.6 % of HeCon Ab (GpH7-A5/GpH7-B3/GpL16-k0 = 100).
With B18 the He/Con_2b was 41.2 % of HeCon Ab (GpH7-A5/GpH7-B3/GpL16-k0 = 100).
For B19, the He/Con_2b was 53.9 % of HeCon Ab (GpH7-A5/GpH7-B3/GpL16-k0 = 100).
With B20 the He/Con_2b was 55.6 % of HeCon Ab (GpH7-A5/GpH7-B3/GpL16-k0 = 100).
In the case of B21, the He/Con_2b is reported as 87 % of HeCon Ab (GpH7-A5/GpH7-B3/GpL16-k0 = 100).
For B22, the He/Con_2b was 84.1 % of HeCon Ab (GpH7-A5/GpH7-B3/GpL16-k0 = 100).

These binders were tested against T3, FcγRIa extracellular domain with C-terminal His tag (human, UniProt P12314 16-292) in the same assay as above.
T3 construct: extracellular domain; expressed in FreeStyle293 cells; analyte in Biacore; also called FcgRI; 1a
T3 sequence (P12314 16-292): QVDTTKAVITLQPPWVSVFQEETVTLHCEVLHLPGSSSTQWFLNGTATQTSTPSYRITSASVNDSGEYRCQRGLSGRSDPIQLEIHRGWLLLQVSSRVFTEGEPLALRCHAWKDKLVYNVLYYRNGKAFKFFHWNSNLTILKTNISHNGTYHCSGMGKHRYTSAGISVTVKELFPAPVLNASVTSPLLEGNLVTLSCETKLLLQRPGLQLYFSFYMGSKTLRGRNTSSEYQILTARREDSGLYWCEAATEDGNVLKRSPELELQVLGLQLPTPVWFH
B1 was tested, and the He/Con_1a was 106 % of HeCon Ab (GpH7-A5/GpH7-B3/GpL16-k0 = 100).
B2 was tested, and the He/Con_1a was 106 % of HeCon Ab (GpH7-A5/GpH7-B3/GpL16-k0 = 100).
With B3 the He/Con_1a was 105 % of HeCon Ab (GpH7-A5/GpH7-B3/GpL16-k0 = 100).
With B4 the He/Con_1a was 106 % of HeCon Ab (GpH7-A5/GpH7-B3/GpL16-k0 = 100).
B5 was tested, and the He/Con_1a was 105 % of HeCon Ab (GpH7-A5/GpH7-B3/GpL16-k0 = 100).
For B6, the He/Con_1a was 105 % of HeCon Ab (GpH7-A5/GpH7-B3/GpL16-k0 = 100).
In the case of B7, the He/Con_1a is reported as 106 % of HeCon Ab (GpH7-A5/GpH7-B3/GpL16-k0 = 100).
For B8, the He/Con_1a was 106 % of HeCon Ab (GpH7-A5/GpH7-B3/GpL16-k0 = 100).
With B9 the He/Con_1a was 112 % of HeCon Ab (GpH7-A5/GpH7-B3/GpL16-k0 = 100).
For B10, the He/Con_1a was 116 % of HeCon Ab (GpH7-A5/GpH7-B3/GpL16-k0 = 100).
With B11 the He/Con_1a was 112 % of HeCon Ab (GpH7-A5/GpH7-B3/GpL16-k0 = 100).
For B12, the He/Con_1a was 117 % of HeCon Ab (GpH7-A5/GpH7-B3/GpL16-k0 = 100).
In the case of B13, the He/Con_1a is reported as 112 % of HeCon Ab (GpH7-A5/GpH7-B3/GpL16-k0 = 100).
In the case of B14, the He/Con_1a is reported as 108 % of HeCon Ab (GpH7-A5/GpH7-B3/GpL16-k0 = 100).
For B15, the He/Con_1a was 113 % of HeCon Ab (GpH7-A5/GpH7-B3/GpL16-k0 = 100).
With B16 the He/Con_1a was 112 % of HeCon Ab (GpH7-A5/GpH7-B3/GpL16-k0 = 100).
B17 was tested, and the He/Con_1a was 107 % of HeCon Ab (GpH7-A5/GpH7-B3/GpL16-k0 = 100).
For B18, the He/Con_1a was 105 % of HeCon Ab (GpH7-A5/GpH7-B3/GpL16-k0 = 100).
For B19, the He/Con_1a was 111 % of HeCon Ab (GpH7-A5/GpH7-B3/GpL16-k0 = 100).
For B20, the He/Con_1a was 112 % of HeCon Ab (GpH7-A5/GpH7-B3/GpL16-k0 = 100).
B21 was tested, and the He/Con_1a was 111 % of HeCon Ab (GpH7-A5/GpH7-B3/GpL16-k0 = 100).
In the case of B22, the He/Con_1a is reported as 112 % of HeCon Ab (GpH7-A5/GpH7-B3/GpL16-k0 = 100).

What follows are binders tested against T2, FcγRIIb extracellular domain with … (assay: SPR, binding relative to GpH7-A5/GpH7-B3/GpL16-k0 = 100).
For B23, the He/Con_2b was 94.7 % of control.
For B24, the He/Con_2b was 59.5 % of control.

These binders were tested against T4, FcγRIa extracellular domain with C-terminal His tag (human, UniProt P12314 16-292) in the same assay as above.
T4 construct: extracellular domain; soluble analyte in Biacore; also called FcgRI; not shown: His tag at the C terminus
T4 sequence (P12314 16-292): as above
With B23 the He/Con_1a was 103 % of control.
For B24, the He/Con_1a was 103 % of control.
